According to US20250297323A1, “METHODS OF USING LONG NON-CODING RNA-8 (TROLL-8) AS A TARGET FOR CANCER DETECTION AND TREATMENT” (H. LEE MOFFITT CANCER CENTER AND RESEARCH INSTITUTE, INC., priority 2022, published 2025):

Key:
[1] = molecular target: T1, carnitine palmitoyltransferase 1A (CPT1A) (human, UniProt P50416 2-773); experiment: co-IP with anti-CPT1A antibody from CA1D cell lysate, western blot
T1 construct: Endogenous protein immunoprecipitated from cell lysate with anti-CPT1A antibody (15184-1-AP, Proteintech); also called FAO rate-limiting enzyme
T1 sequence (looked up): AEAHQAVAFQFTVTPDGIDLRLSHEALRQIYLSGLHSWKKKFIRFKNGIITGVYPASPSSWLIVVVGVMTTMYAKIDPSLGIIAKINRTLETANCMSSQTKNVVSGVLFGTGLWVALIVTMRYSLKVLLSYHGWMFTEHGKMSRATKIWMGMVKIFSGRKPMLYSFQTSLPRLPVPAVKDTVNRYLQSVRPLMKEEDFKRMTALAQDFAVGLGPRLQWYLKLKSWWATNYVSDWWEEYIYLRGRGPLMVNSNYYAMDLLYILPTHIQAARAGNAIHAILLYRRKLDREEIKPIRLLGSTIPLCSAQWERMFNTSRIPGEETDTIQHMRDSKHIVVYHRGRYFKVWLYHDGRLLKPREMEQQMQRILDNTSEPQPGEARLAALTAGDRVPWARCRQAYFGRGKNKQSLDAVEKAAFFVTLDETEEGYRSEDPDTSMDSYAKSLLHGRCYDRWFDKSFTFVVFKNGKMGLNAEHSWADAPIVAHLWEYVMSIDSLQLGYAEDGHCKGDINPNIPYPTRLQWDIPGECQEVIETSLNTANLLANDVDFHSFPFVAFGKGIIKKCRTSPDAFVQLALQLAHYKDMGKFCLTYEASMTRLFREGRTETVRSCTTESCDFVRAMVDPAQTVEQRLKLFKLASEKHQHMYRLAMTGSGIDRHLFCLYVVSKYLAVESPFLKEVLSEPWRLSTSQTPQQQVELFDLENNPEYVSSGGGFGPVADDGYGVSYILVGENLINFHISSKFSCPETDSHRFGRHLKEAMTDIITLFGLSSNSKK
Source text: Beyond its classical activity, ACAT1 acetylates the Pyruvate Dehydrogenase Phosphatase Catalytic Subunit1 (PDP1) and the Pyruvate Dehydrogenase E1 Subunit Alpha1 (PDHA1) in the Pyruvate Dehydrogenase Complex (PDC), which negatively regulates the activity of Pyruvate Dehydrogenase (PDH) in glycolysis and tumor growth. […] In the experiment, we have the following groups: whole cell lysate (5% of the total input); cell lysate from either CA1D cells, or siNT/siTROLL-8 treated CA1D cells immunoprecipitated with CPT1A specific antibody; or the same cell lysate immunoprecipitated with normal IgG control antibody. […] While there is no change in the expression level of either CPT1A or ACAT1 in the whole cell lysate, CPT1A specifically immunoprecipitated more ACAT1 (by around 2-fold) in siTROLL-8 CA1D cells compared to non-treated cells, confirming the LC-MS discovery that TROLL-8 depletion increased the physical interaction between CPT1A and ACAT1.
4 mg cell lysate of CA1D cells were prepared using RIPA buffer and used to test the interaction between CPT1A and ACAT1. 4 mg cell lysate of either CA1D cells transfected with siRNAs for TROLL-8, or with the non-targeting siRNA as a negative control, were used to test the change in the interaction between CPT1A and ACAT1. The CoIP assay was performed according to the protocol provided with the anti-CPT1A primary antibody (15184-1-AP). […]

[2] = molecular target: T1, carnitine palmitoyltransferase 1A …; experiment: co-IP with anti-CPT1A antibody from CA1D cell lysate, LC-MS/MS proteomics
Protocol: 4 mg cell lysate of CA1D cells were prepared using RIPA buffer and used to test the interaction between CPT1A and ACAT1. 4 mg cell lysate of either CA1D cells transfected with siRNAs for TROLL-8, or with the non-targeting siRNA as a negative control, were used to test the change in the interaction between CPT1A and ACAT1. The CoIP assay was performed according to the protocol provided with the anti-CPT1A primary antibody (15184-1-AP). Add anti-CPT1A primary antibody (15184-1-AP, Proteintech) or negative control normal rabbit IgG (#2729, Cell Signaling) corresponding to the primary antibody source to the lysate with gentle rocking at 4° C. for 12 h. 50 ul Protein G Dynabeads slurry were added to capture the immunocomplex with gentle rocking at 4° C. for 12 h. Collect the beads with magnetic stand and discard the supernatant. Wash the beads 3 times with 1 ml 0.2% TBST, collect the beads with magnetic stand and discard the supernatant. […] The interaction was then detected via western blot using the following primary antibodies: CPT1A (ab128568, Abcam), ACAT1 (ab168342, Abcam), and beta-actin (A5441, Sigma-Aldrich).
1.5×10⁶ CA1D cells were transfected with either siNT (negative control) or siTROLL-8. […] The SDS-PAGE gel bands or the immunoprecipitated proteins were extracted, digested with trypsin, and analyzed via LC-MS/MS and the identified peptides are listed in Supplementary Data 1. […]

B1: ACAT1, the acetyl-CoA acetyltransferase 1 protein (enzyme, human, UniProt P24752 34-427, looked up)
chain: VSKPTLKEVVIVSATRTPIGSFLGSLSLLPATKLGSIAIQGAIEKAGIPKEEVKEAYMGNVLQGGEGQAPTRQAVLGAGLPISTPCTTINKVCASGMKAIMMASQSLMCGHQDVMVAGGMESMSNVPYVMNRGSTPYGGVKLEDLIVKDGLTDVYNKIHMGSCAENTAKKLNIARNEQDAYAINSYTRSKAAWEAGKFGNEVIPVTVTVKGQPDVVVKEDEEYKRVDFSKVPKLKTVFQKENGTVTAANASTLNDGAAALVLMTADAAKRLNVTPLARIVAFADAAVEPIDFPIAPVYAASMVLKDVGLKKEDIAMWEVNEAFSLVVLANIKMLEIDPQKVNINGGAVSLGHPIGMSGARIVGHLTHALKQGEYGLASICNGGGGASAMLIQKL
notes: Endogenous protein co-immunoprecipitated with CPT1A from cell lysate; also called acetyltransferase ACAT1
- fold change of ACAT1 immunoprecipitated by CPT1A (siTROLL-8 vs non-treated CA1D cells) [1]: ~2 fold
- fold change of co-immunoprecipitation with CPT1A (TROLL-8 depleted vs non-treated CA1D cells) [2]: ~2 fold
